We go through two substances from patent publication US20250352667A1.

The target in assay [1] is KEAP1 (wild-type full-length), His-tagged (human) (UniProt Q14145). Nature of the assay: AlphaScreen; 19.2 nM FLAG-NRF2, 150 nM His-KEAP1; Repeat 2 (same value as in Table 23).
Assay [2] has the same target. Nature of the assay: AlphaScreen; 38.4 nM FLAG-NRF2, 150 nM His-KEAP1; Repeat 1 (same value as in Table 23).
Assay [3] has the same target. In words: AlphaScreen; 38.4 nM FLAG-NRF2, 150 nM His-KEAP1; Repeat 2 (same value as in Table 23). (In general: Alpha assays give light when donor and acceptor beads are brought close together.)
For assay [4] the target is unchanged. In words: AlphaScreen; 19.2 nM FLAG-NRF2, 150 nM His-KEAP1 (same value as in Table 23).
For assay [5] the target is unchanged. In words: AlphaScreen; over 9.6, 19.2 and 38.4 nM NRF2; 150 nM His-KEAP1.
For assay [6] the target is unchanged. Nature of the assay: AlphaScreen; average of three conditions; against wild-type NRF2 isoform 2.
Assay [7] shares this target. In words: AlphaScreen, all variants on one plate; average of three conditions ± standard deviation, KEAP1 150 nM; relative to NRF2 (WT) isoform 2.
Assay [8] has the same target. Nature of the assay: AlphaScreen, all variants on one plate; lower condition (9.6 nM NRF2), KEAP1 150 nM; the reference itself.
For assay [9] the target is unchanged. In words: AlphaScreen; 38.4 nM FLAG-NRF2, 150 nM His-KEAP1; Repeat 1 (same value as in Table 22).
For assay [10] the target is unchanged. Nature of the assay: AlphaScreen; 38.4 nM FLAG-NRF2, 150 nM His-KEAP1 (same value as in Table 22).
The target is the same in assay [11]. In words: AlphaScreen; 19.2 nM FLAG-NRF2, 150 nM His-KEAP1; wild type set to 100%.
Assay [12] shares this target. Nature of the assay: AlphaScreen, all variants on one plate; upper condition (38.4 nM NRF2), KEAP1 150 nM; the reference itself.

KEAP1 (wild-type full-length), His-tagged (human), sequence (Q14145 2-624 limits assumed, form in doubt): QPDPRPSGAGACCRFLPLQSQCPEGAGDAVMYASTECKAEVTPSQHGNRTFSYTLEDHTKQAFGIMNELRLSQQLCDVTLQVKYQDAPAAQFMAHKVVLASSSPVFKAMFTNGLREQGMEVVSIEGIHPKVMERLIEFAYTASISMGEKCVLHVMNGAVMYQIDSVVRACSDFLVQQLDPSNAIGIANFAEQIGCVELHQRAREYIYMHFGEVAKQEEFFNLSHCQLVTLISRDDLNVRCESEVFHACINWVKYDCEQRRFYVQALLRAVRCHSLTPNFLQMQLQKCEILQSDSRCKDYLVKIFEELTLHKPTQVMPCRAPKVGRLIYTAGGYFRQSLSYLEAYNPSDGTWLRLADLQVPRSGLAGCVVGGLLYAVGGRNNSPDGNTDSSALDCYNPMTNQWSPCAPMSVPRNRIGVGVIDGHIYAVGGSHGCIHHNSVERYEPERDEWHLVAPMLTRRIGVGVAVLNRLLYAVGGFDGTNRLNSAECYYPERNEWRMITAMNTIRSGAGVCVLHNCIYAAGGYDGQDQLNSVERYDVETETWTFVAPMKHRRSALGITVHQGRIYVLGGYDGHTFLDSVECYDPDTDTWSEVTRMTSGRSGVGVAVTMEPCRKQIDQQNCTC

Regarding “NRF2 isoform 2 (E63G/E66G full-length), FLAG-tagged”, the figures for the A-counts in assay [1], in assay [2] and in [3] were 1950 A-counts, 2120 A-counts and 1960 A-counts, respectively. Moreover, the S/N in assay [4] turned out to be 1.8. This substance also displayed a Standard Deviation (of binding percentage) in [5] of 10.2%. Also, in assay [6], the Reported Value (reduction in binding) turned out to be 69.1%. The substance further displayed a % Disruption in Binding (Reported Values) in [7] of 61.7%.

As to “NRF2 isoform 2 (wild-type full-length), FLAG-tagged”, the % Disruption in Binding in [8] and in assay [12] was 0% in each case. Moreover, the A-counts in assay [9] was found to be 3470 A-counts. The substance also registered a S/N in assay [10] of 3.4. For the same substance, in assay [11], the Binding Percentage (%) was 100%.
